This data set is described as follows: soluble on expression in E. coli; label from the status in PepcDB or PDB records.
In the case of “MSLSLSTIICIGMAGSGKTTFMQRLNSHLRAEKTPPYVINLDPAVLRVPYGANIDIRDSIKYKKVMENYQLGPNGAIVTSLNLFSTKIDQVIGLVEQKKDKFQNCIIDTPGQIECFVWSASGAIITESFASSFPTVIAYIVDTPRNSSPTTFMSNMLYACSILYKTKLPMIVVFNKTDVCKADFAKEWMTDFESFQAAIKEDQDLNGDNGLGSGYMSSLVNSMSLMLEEFYSQLDVVGVSSFTGDGFDEFMQCVDKKVDEYDQYYKQEREKALNLKKKKEEMRKQKSLNGLMKDLGLNEKSSAAASDNDSIDAISDLEEDANDGLVDRDEDEGVEREYTFPGEERTKGEVNENSAPDLQRRYQEAMQQVGKTASSETAENIAKYIRNEGHHHHHH”, the “soluble on expression in E. coli” value was “soluble”.

Consider “MSLSNDIELTIDIELQSYLTSLFEGNAGAAIIMNVNDGSILAAGSFPEYDLNPFVTGISFKDWDELSNSLDHPFTNKLINGYYPPGSVVKMGVGLSFLNSKNISPSTHYVCNGSIELGGRFFRCWNRSGHGPVDLKHAIKYSCDVYFYNGSLQVGIDQISETLSRIGFGVKTGVDLPSEFVGTLPSKEWKMQRYRQSWFQGDTLNTAIGQGNFLATPMQIARYTAQIAKSGEVIPHFLKSIENNNTTIENQMDENKKEIFTLFEKSQLPYIRDAMYAVANEQGGTSYRYLHNLDVKVAAKTGTAQVVGFSQTDKNRVDEKQFEYYTRSHAWLTSYAPYSKPKYVVTVLLEHGGRNITSGATVAKIYQKMIELGYFKEGHHHHHH”, for which the “soluble on expression in E. coli” value is “not soluble”.

Regarding “MSLSNQLLLGMSEFGLSYIINFSEFNQHVLVPATTGSGKTTLLQLLVQHAVKFNFPVILIDGKGARDTLESMREIAKFYDKEVHAFTDDGDMRYNPVEHGNDISIRDKLVSLAETESVFYSGAAKALLQVTIQLLDEFKGAKVTLSGDTRTTETVERSLPFVQRFLLPRNVLHLFADAILPNNPKLFEIEVEKKIQKPKKKSVKEGSEILPDSDLDKEEKEEDSQIKNSKFRNISQLGIAQKETETIVLNPETLDLDSYYLLLKRNLRYLPTDKETGENIKQKLFERLFIRYEHKDSPFYLYATSEALQTNINMLLDSELGKLFDTKNAKNVLDVQEIVNQRKLVYVSFNGLIYKEYIRTLAQMLVGDVNYFASEMYRKNVKREVLVIFDEPASYLNETFIDMVNKGRGAGVYGIFTPQTMADIAKLGDKLMEQLVGNVNTLFIGKTNEKGEAEYWSETMGTYQDIDVTSVTEQEDGYSDVGKSDWSGDRGTKRNVDRFKISPNKIKELRTGEFIIYRTAENVNLPPQKVYVRNALEWLQKSNSEGHHHHHH”, the “soluble on expression in E. coli” value is given as “soluble”.

With “MSLSNYISIKGAKVNNLKNIDVNIPRNKLVVITGLSGSGKSSLAFDTGKTICPVCHGTRLKKEAGYVKVGGKSISQLVDLPIHDLKEFFRTLELDAHDTAIAKRILTEITNRINFLMDVGLGYLTLNRLSNSLSGGESQRINLATSLGSSLVGSLYILDEPSIGLHSRDTDRLIKVLRQLQELGNTVVVVEHDEEIIRAADYIIDIGPQAGRLGGQIVYQGNMNDLQRNSNSYTVRYLLGEEGHHHHHH”, the “soluble on expression in E. coli” value is “soluble”.

“MSLSQASTVCALNDHLPNTVLRLPLKYPSTNKELKSHEYFESQIAYTGCLIATTTHMVDHISWRLNNDLKTITLTPICISNPFQLECRTISLLLPSQVYPHCIDAVYHGEEGGYLVVDVIDENYLWITLRIEMNDFLHNTKNFRPLTLDQFESWGHISVPYSFELRSNPYCLRVLDERNVVVSLKDGGLLHFQRSSVLADFNVFNCEESAHFHLGGILDGIFKSGRADLTVDGVSSNAAIDATIVPDPSKSLIATLTVSKTIKFWDLKEHSLLRERTIHPQDTNTWLSFGPARYLQCYGNVLGVHSLLQTKHSTSIDFWDVSPLKEDQKSYKILHTVELLSPTINGAPSDSPFSNDIWFIQDFTLKFEKGNFTVLWKSNNSSILTIYDLKNLAENDKPPKLSQWTLSGSEGHHHHHH”: the “soluble on expression in E. coli” value is given as “soluble”.

For the sequence “MSLSRIIVVTSGKGGVGKTTSSAAIASGLALRGKKTAVIDFDIGLRNLDLIMGCERRVVYDFVNVINGEATLNQALIKDKRNENLFILPASQTRDKDALTKDGVQRVLNDLKEMGFDFIICDSPAGIEQGALMALYYADEAIVTTNPEVSSVRDSDRILGILDSKSMRAEQGQAPIKQHLLLTRYNPARVTQGEMLSVQDVEEILHVPLLGVIPESQAVLNASNKGVPVIFDDQSDAGQAYQDTVARLLGEQVEFRFLTEAKKGIFKRLFGGEGHHHHHH”, the “soluble on expression in E. coli” value is on record as “soluble”.

As for “MSLSRRGRPKIPRFISEEPKFRIFKPHGVSLTEVDKVILSVDELEAIRLVDYLDYTQEEASKLMGISRRVLWSLLTEGRKKIADALINGKAIVIEGGEYKIRECGFCMRHRFGIKKHCRTWREELEGHHHHHH”, the “soluble on expression in E. coli” value was “not soluble”.

Take “MSLSRSEEMHRLTENVYKTIMEQFNPSLRNFIAMGKNYEKALAGVTYAAKGYFDALVKMGELASESQGSKELGDVLFQMAEVHRQIQNQLEEMLKSFHNELLTQLEQKVELDSRYLSAALKKYQTEQRSKGDALDKCQAELKKLRKKSQGSKNPQKYSDKELQYIDAISNKQGELENYVSDGYKTALTEERRRFCFLVEKQCAVAKNSAAYHSKGKELLAQKLPLWQQACADPSKIPERAVQLMQQVASN”: the “soluble on expression in E. coli” value is on record as “soluble”.

Consider “MSLSRYPQLIQEQILKCKESWDSNSYKTSLRSFVYNKVNETDAILYTKPTNVSQEEWDKAIENKPSSDLIPIQVFGFEGLNNRNQIQVENVAQARVILNQILDKTKQLQQSHSFETSARIMKVQARNAQIEKRILKLGTQLAILKNRRLPLTISEEKMWGQFQELLKSSNDPAGLGKTNELWARLAVLRERAKTISEQLDSKLVIIGENGGQTGKPSASGDNNRVSDEVYDRIDKIAEILKNQQSGIAYLNDVLEKDNKALDSVVELKEGHHHHHH”, for which the “soluble on expression in E. coli” value is listed as “soluble”.

As for “MSLSTERTERVRPQRVEQNLPPLSWGGSGVQTAYWVQEAVQPGDSLADVLARSGMARDEIARITEKYGGEADLRHLRADQSVHVLVGGDGGAREVQFFTDEDGERNLVALEKKGGIWRRSASEADMKVLPTLRSVVVKTSARGSLARAEVPVEIRESLSGIFAGRFSLDGLKEGDAVRLMYDSLYFHGQQVAAGDILAAEVVKGGTRHQAFYYRSDKEGGGGGNYYDEDGKVLQEKGGFNIEPLVYTRISSPFGYRMHPILHTWRLHTGIDYAAPQGTPVRASADGVITFKGRKGGYGNAVMIRHANGVETLYAHLSAFSQAEGNVRGGEVIGFVGSTGRSTGPHLHYEARINGQPVNPVSVALPTPELTQADKAAFAAQKQKADALLARLRGIPVTVSQSDEGHHHHHH”, the “soluble on expression in E. coli” value is listed as “soluble”.

“MSLSTFRSIEWKKDKLVLLDQRYLPEKTLYLELKTVDEVARAIKEMTVRGAPAIGVAAAYGMVLCVQKLSKNDDLIRELQKADDLLRASRPTAVNLFWALDRMKKIWQGFNGSLEDLKMILEKEATDIEREDVEINKQIAKNGVELVPFGAKIIHHCNTGSLATVDYGTALGVIRYAHEIGKKIHVFLDETRPRLQGARLSAWEMKELGIPHTIIVDGASGLVMKKFKIDLALVGADRIAANGDTANKIGTYNLAIVAKYHNVPLYVVAPTSTIDLKTPAGQDIPIEERSADEIRCVGNSQVAPQESPVFNPAFDVTPAELISGIITEKGIVYPPFKENLRKLFESAEGHHHHHH”: the “soluble on expression in E. coli” value is given as “soluble”.

With “MSLSTIYDIAKHAGVSKSTVSRVLNNQANISEESRKKVLAAIDQLNYQPSKLARALTSSGFDAIMVISNRSTTTTTGNPFFSEIIQSISTQAELENFDLILQTAKNSEDELKKCLSKIQEKMIKGIIMLSSPADEDFFHQLDPYNIPIVVTGKVEGHYKNIYSVDTDNFGDSYALTKHLIKQGHQKIACIHAPLDYHVSIDRLAGFRSCLFDHQLDLRNDWIIDSGYSIEDSYKAALRLMEGPDKPTAVFATDDLKVLSIYKMAADKNLQIPTDFSVIGYNDKVASSFLSPPLTSIDIPINKLGKKATNLLFRLIHQDKNVPKTTIIQTEMIERESIQKINEGHHHHHH”, the “soluble on expression in E. coli” value is recorded as “not soluble”.

As to “MSLSYPYYIVDAFAEEVFKGNPAAVYVLEKWLPEAVMQNIAIENNLSETAFTVKEGQSYALRWFTPEREIDLCGHATLATAFVLFNYYSVAEETLHFTSQSGPLAVTKKEEYYYLDFPYILPERIPILPEYEAALGTKIYEAYLGRDLFFVLKDEETVAKITPDFSALKALDLGVGVIVTASGDSVDFVSRTFFPKLRINEDPVCGSAHANLIPYWGKRLNQTTLSAYQVSPRGGFLTCEVKENRVIIGGTAKLFAKGEAYLPVEGGSHHHHHH”, the “soluble on expression in E. coli” value is “soluble”.

Regarding “MSLSYRIDVLLFNKFETLDVFGPVEIFGNLQDDFELNFISSDGGLVESSQKVRVETSLYTRDENIEKILFVPGGSGTREKVNDDNFINFIGNMVKESKYIISVCTGSALLSKAGILNGKRATTNKRSFKWVTEQNEDVLWVKEARWVKDGNIYTSSGVSAGIDMTLGFIEDLIGKEKALEISRSIEYFWNEDSNYDPFSKIYGEGHHHHHH”, the “soluble on expression in E. coli” value was “soluble”.

Consider “MSLTALQQMTVLFVDDEEIAREQMKMVLSSFCKNTICVGSADQALAALQEHHPDIVLTDIRMPGLSGIELLNAVKQKDASVAVVIVSAHSESEYLLDAFRYKADGYLLKPFNFHEMLELLSDIATQKEAASSERKQGPDNRDFLLKILDTLGGRRAEIMEYVINHLDADNLFHGTYDEVAEALSASKPTVVATFQIMLEKNVLTRLKYGTYRMNVDATEGHHHHHH”, for which the “soluble on expression in E. coli” value is recorded as “soluble”.

Regarding “MSLTDNSKIRVVVGMSGGVDSSVTALLLKEQGYDVIGVFMKNWDDTDEFGVCTATEDYKDVAAVADKIGIPYYSVNFEKEYWDRVFEYFLAEYRAGRTPNPDVMCNKEIKFKAFLDYAMTLGADYVATGHYAQVKRDENGTVHMLRGADNGKDQTYFLSQLSQEQLQKTLFPLGHLQKSEVREIAERAGLATAKKKDSTGICFIGEKNFKQFLSQYLPAQKGRMMTIDGRDMGEHAGLMYYTIGQRGGLGIGGQHGGDNQPWFVVGKDLSQNILYVGQGFYHEALMSNSLDASVIHFTREMPEEFTFECTAKFRYRQPDSHVAVHVRGDKAEVVFAEPQRAITPGQAVVFYDGKECLGGGMIDMAYKNGQPCQYIEGHHHHHH”, the “soluble on expression in E. coli” value is “soluble”.

Turning to “MSLTDRLRATYRVKATAASIEARAKGIAVEQSVEMPLSAIDDPAVLDGIVGVVEEITERGEDCFEVRLALSTATIGGDAGQLFNMLFGNTSLQDDTVLLDIDLPDDLLASFGGPNIGAAGLRARVGASADRALTCSALKPQGLPPDRLADLARRMALGGLDFIKDDHGMADQAYAPFASRVGAVAAAVDEVNRQTGGQTRYLPSLSGHLDQLRSQVRTGLDHGIDTFLIAPMIVGPSTFHAVVREFPGAAFFAHPTLAGPSRIAPPAHFGKLFRLLGADAVIFPNSGGRFGYSRDTCQAVAEAALGPWGGLHASLPVPAGGMSLARVPEMIATYGPDVIVLIGGNLLEARDRLTEETAAFVASVAGAASRGCGLAEGHHHHHH”, the “soluble on expression in E. coli” value is recorded as “soluble”.

Regarding “MSLTDVSRILKEARDQGRLTTLDYANLIFDDFMELHGDRHFSDDGAIVGGLAYLAGQPVTVIGIQKGKNLQDNLARNFGQPNPEGYRKALRLMKQAEKFGRPVVTFINTAGAYPGVGAEERGQGEAIAKNLMEMSDLKVPIIAIIIGEGGSGGALALAVADQVWMLENTMYAVLSPEGFASILWKDGSRATEAAELMKITAGELYKMGIVDRIIPEHGYFSSEIVDIIKANLIEQITSLQAKPLDQLLDERYQRFRKYEGHHHHHH”, the “soluble on expression in E. coli” value was “not soluble”.

Values taken from the DeepSol protein solubility set.
